# B1: DPP9-short (reference DPP9) (Homo sapiens) (protein)
# chain: MATTGTPTADRGDAAATDDPAARFQVQKHSWDGLRSIIHGSRKYSGLIVNKAPHDFQFVQKTDESGPHSHRLYYLGMPYGSRENSLLYSEIPKKVRKEALLLLSWKQMLDHFQATPHHGVYSREEELLRERKRLGVFGITSYDFHSESGLFLFQASNSLFHCRDGGKNGFMVSPMKPLEIKTQCSGPRMDPKICPADPAFFSFINNSDLWVANIETGEERRLTFCHQGLSNVLDDPKSAGVATFVIQEEFDRFTGYWWCPTASWEGSEGLKTLRILYEEVDESEVEVIHVPSPALEERKTDSYRYPRTGSKNPKIALKLAEFQTDSQGKIVSTQEKELVQPFSSLFPKVEYIARAGWTRDGKYAWAMFLDRPQQWLQLVLLPPALFIPSTENEEQRLASARAVPRNVQPYVVYEEVTNVWINVHDIFYPFPQSEGEDELCFLRANECKTGFCHLYKVTAVLKSQGYDWSEPFSPGEDEFKCPIKEEIALTSGEWEVLARHGSKIWVNEETKLVYFQGTKDTPLEHHLYVVSYEAAGEIVRLTTPGFSHSCSMSQNFDMFVSHYSSVSTPPCVHVYKLSGPDDDPLHKQPRFWASMMEAASCPPDYVPPEIFHFHTRSDVRLYGMIYKPHALQPGKKHPTVLFVYGGPQVQLVNNSFKGIKYLRLNTLASLGYAVVVIDGRGSCQRGLRFEGALKNQMGQVEIEDQVEGLQFVAEKYGFIDLSRVAIHGWSYGGFLSLMGLIHKPQVFKVAIAGAPVTVWMAYDTGYTERYMDVPENNQHGYEAGSVALHVEKLPNEPNRLLILHGFLDENVHFFHTNFLVSQLIRAGKPYQLQIYPNERHSIRCPESGEHYEVTLLHFLQEYL
# notes: 863 aa short isoform amplified from H358 cDNA or in-house plasmids; overexpressed in A549 cells, whole cell lysate; dimer
# Substrate: Cc1cc(=O)oc2cc(NC(=O)[C@@H]3CCCN3C(=O)[C@@H](N)C(C)C)ccc12
# Experiment: AMC release kinetics, allosteric sigmoidal fit
# Type: cell-based, Homo sapiens
# Conditions: A549 overexpression lysate; […] sitagliptin to exclude DPP4
# Description: AMC release kinetics, allosteric sigmoidal fit on DPP9-short (reference DPP9) | Enzyme kinetics for DPP9 reference and AFE isoforms
protein,measurement,value
B1,K0.5,4.411 ± 0.752 µM
same,Vmax,2.24 µmol/min/mg

# Reference: article PMC13429693, “Disease-associated genetic variants can cause missense effects in tissue-specific protein isoforms” (Nature Communications, 2026)
